# Laboratory results from US20200129532.
# T1: HA-tagged VDR (vitamin D receptor), wild type, P11473
# T1 chain: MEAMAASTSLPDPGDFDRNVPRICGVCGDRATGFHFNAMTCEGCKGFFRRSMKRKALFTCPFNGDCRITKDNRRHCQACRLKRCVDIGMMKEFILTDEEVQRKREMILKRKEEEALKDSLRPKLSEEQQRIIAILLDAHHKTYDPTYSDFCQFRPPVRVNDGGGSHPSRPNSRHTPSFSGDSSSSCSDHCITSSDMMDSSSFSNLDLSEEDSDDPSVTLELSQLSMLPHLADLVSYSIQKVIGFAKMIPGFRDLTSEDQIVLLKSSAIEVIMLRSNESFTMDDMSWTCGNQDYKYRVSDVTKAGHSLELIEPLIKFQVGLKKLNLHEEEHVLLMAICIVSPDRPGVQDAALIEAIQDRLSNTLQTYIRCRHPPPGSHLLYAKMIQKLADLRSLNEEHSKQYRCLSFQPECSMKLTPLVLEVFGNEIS
# Molecular target: T1, HA-tagged VDR (vitamin D receptor), …
protein,measurement,value
"PCAF, wild-type, overexpressed in 293T cells (protein) MSEAGGAGPGGCGAGAGAGAGPGALPPQPAALPPAPPQGSPCAAAAGGSGACGPATAVAAAGTAEGPGGGGSARIAVKKAQLRSAPRAKKLEKLGVYSACKAEESCKCNGWKNPNPSPTPPRADLQQIIVSLTESCRSCSHALAAHVSHLENVSEEEMNRLLGIVLDVEYLFTCVHKEEDADTKQVYFYLFKLLRKSILQRGKPVVEGSLEKKPPFEKPSIEQGVNNFVQYKFSHLPAKERQTIVELAKMFLNRINYWHLEAPSQRRLRSPNDDISGYKENYTRWLCYCNVPQFCDSLPRYETTQVFGRTLLRSVFTVMRRQLLEQARQEKDKLPLEKRTLILTHFPKFLSMLEEEVYSQNSPIWDQDFLSASSRTSQLGIQTVINPPPVAGTISYNSTSSSLEQPNAGSSSPACKASSGLEANPGEKRKMTDSHVLEEAKKPRVMGDIPMELINEVMSTITDPAAMLGPETNFLSAHSARDEAARLEERRGVIEFHVVGNSLNQKPNKKILMWLVGLQNVFSHQLPRMPKEYITRLVFDPKHKTLALIKDGRVIGGICFRMFPSQGFTEIVFCAVTSNEQVKGYGTHLMNHLKEYHIKHDILNFLTYADEYAIGYFKKQGFSKEIKIPKTKYVGYIKDYEGATLMGCELNPRIPYTEFSVIIKKQKEIIKKLIERKQAQIRKVYPGLSCFKDGVRQIPIESIPGIRETGWKPSGKEKSKEPRDPDQLYSTLKSILQQVKSHQSAWPFMEPVKRTEAPGYYEVIRFPMDLKTMSERLKNRYYVSKKLFMADLQRVFTNCKEYNPPESEYYKCANILEKFFFSKIKEAGLIDK",VDR acetylation,VDR acetylation indeed increased when expressed together with PCAF
